B1: CCDC6 (parent)
chain: FTPPTSLTRAGMSYYNSPGLHVQH
B2: CCDC89 (parent)
chain: LNAELEEKMMQEAEKLKAQGEYSR

Variants of: B1
Test: protein stability index of a GFP-peptide fusion (GPS, HEK-293T) (PSI 1-6); higher = more stable
Settings: c terminus: a fixed tail appended
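Note: lentivirally expressed fusions sorted by FACS into six bins by GFP to DsRed ratio, PSI derived from sequencing read proportions per bin multiplied by bin number.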

Protein stability index, by site and new letter:
S17: L 1.78, I 1.7, G 2, H 1.83, W 2.48, Q 1.57, R 1.76, V 1.86, K 2.04, D 2.09, E 1.93, M 1.32, F 2.95, Y 1.68, A 2.94, C 1.24, N 1.24, T 1.64
P18: Q 2.16, R 1.95, T 2.11, Y 2.87, A 2.28, G 2.05, F 1.25, H 1.38, C 1.21, I 2.06, M 1.73, E 2.52, S 1.87, W 2.62, N 1.78, L 1.22, K 2.43, D 1.5, V 2.27
V22: H 1.87, W 1.22, S 1.74, I 2.14, E 2.18, L 1.95, T 1.97, G 2.01, Y 2.32, A 1.7, K 2.25, Q 1.56, F 1.51, C 1.51, R 2.01, M 1.64, D 1.86, N 1.98
M12: S 2, K 2.2, W 2.4, F 1.58, I 2.02, Y 1.71, T 2.16, C 1.68, Q 1.73, V 1.99, H 2.33, L 2.21, R 1.79, N 2.12, G 1.57, D 2.19, E 2.29, A 1.84, P 2.56
Y15: H 2.11, P 2.57, S 2.21, F 2.5, W 3.27, A 2.24, V 2.89, T 2.51, L 2.22, C 1.99, R 2.33, Q 2.45, K 2.33, I 2.18, E 2.35, G 2.37, N 2.23, M 1.92, D 2.58
L20: S 1.84, C 1.68, I 2.36, T 2.35, Q 2.69, F 1.72, K 2.25, R 2.62, W 2.79, Y 1.51, H 1.72, M 1.8, P 1.67, A 2.14, V 2.02, G 2.93, D 2.02, N 2.4, E 2.27
A10: R 2.22, Y 2.72, T 1.68, W 3.03, V 1.98, S 2.06
G11: Q 1.98, K 1.19, A 1.96, V 1.56, I 1.49, N 2.46, S 2.23, D 1.75, C 1.71, R 1.68, F 1.68, H 1.69, E 1.84, L 1.97, T 2.17, M 1.91, Y 2.12
N16: C 2.06, V 2.32, P 1.89, Q 1.94, Y 1.77, G 1.53, H 2.12, L 2.09, S 1.65, D 2.33, M 1.89, T 2.17, A 2.42, E 1.62, R 1.42, K 1.95, I 1.98, F 1.33
H21: S 2.13, K 1.68, M 1.6, N 1.97, L 1.81, W 2.36, A 2.11, R 1.75, E 2.75, T 1.91, Y 1.25, D 1.47, C 1.81, V 2.58, Q 2.54, I 1.61, G 2.2, F 1.61, P 1.76
Y14: N 2.6, G 2.31, S 2.46, P 1.88, T 2.33, D 3.09, L 1.44, Q 2.65, V 1.32, H 2.42, W 1.67, I 1.64, M 1.7, C 1.93, E 2.73, A 2.09, R 3.18, F 1.94, K 2.66
G19: Y 1.96, H 1.96, K 2.27, A 1.98, R 2.13, C 1.98, E 2.1, W 1.8, M 2.08, D 2.22, N 2.09, Q 2.87, T 1.86, F 2.45, I 1.56, L 1.66, S 1.73, V 3.1
H24: C 1.66, P 2.24, G 1.77, V 1.67, K 2.7, W 1.38, R 1.73, A 1.56, T 1.85, M 2.9, L 1.63, S 1.8, F 2.77, Q 1.86, N 1.15, D 1.82, I 3.53, Y 1.19, E 1.84
Q23: H 1.88, K 2.34, L 2, N 1.2, D 1.69, P 1.79, S 1.43, V 2.3, A 1.74, T 1.73, F 1.92, I 2.46, Y 2.06, C 1.65, W 3.23, R 2.08, G 1.56, M 1.31
S13: I 1.69, K 2.11, C 1.55, V 1.97, D 1.43, R 1.87, P 1.96, L 1.73, F 2.54, W 1.3, H 1.67, M 1.34, N 1.77, T 1.39, A 2.18, G 1.39, E 1.9, Y 1.86

Variants of: B2
Test: as above
Settings: c terminus: a fixed tail appended

Protein stability index of substitutions, site by site:
E4: R 4.57, M 3.91, L 4.56, Q 4.76, F 4.47, K 3.96, Y 3.74, S 5.16, V 3.95, W 3.12, T 4.3, C 3.98, D 4.94, H 4.4, I 4.6, P 3.94
L5: F 4.73, E 5.46, A 4.86, H 5.19, D 4.71
A3: R 4.94, Q 4.97, K 5.28, G 3.57, D 5.08, V 5.13, N 3.89, H 4.71, W 4.58, L 5.02, F 4.57, T 5.63, C 4.69, S 4.96, E 4.45, Y 4.2, I 4.9, P 4.76
L1: E 4.91, I 4.69, N 4.97, H 4.89, R 5.17, D 5.54, A 5.74, Y 4.95, F 5.18, S 5.21, T 4.98, K 5.3, M 5.2, W 4.8, Q 5.11, V 4.41, C 5.32, P 5.4
N2: A 4.98, T 5.32, I 4.79, P 4.82, Q 5.63, G 5.14, H 5.42, S 5.11, M 4.99, F 4.17, W 2.71, D 3.11, R 3.94

From the supplement of paper PMC10567573
